B1: PLK2 (parent)
chain: YAELGQCSVFPATDAPEQFISQVT

Variants of: B1
Assay: protein stability index of a GFP-peptide fusion (GPS, HEK-293T) (PSI 1-6); higher = more stable
Settings: c terminus: a fixed tail appended
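Further: lentivirally expressed fusions sorted by FACS into six bins by GFP to DsRed ratio, PSI derived from sequencing read proportions per bin multiplied by bin number.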

| Variant | protein stability index |
| --- | --- |
| A15L | 2.31 |
| C7L | 1.69 |
| A12N | 2.33 |
| P11K | 2.68 |
| F10I | 2.87 |
| C7Q | 2.36 |
| D14V | 1.78 |
| V23T | 2.48 |
| V9C | 2.42 |
| S21A | 1.64 |
| C7G | 2.63 |
| A12R | 1.63 |
| T24N | 2.92 |
| V23P | 2.81 |
| A15I | 1.96 |
| F10E | 3.68 |
| G5M | 1.98 |
| V23E | 2.75 |
| P16L | 1.84 |
| V23C | 2.95 |
| T24C | 1.31 |
| A2T | 2.25 |
| Q6R | 1.69 |
| I20M | 2.35 |

| Variant | protein stability index |
| --- | --- |
| E3R | 2.09 |
| A2M | 2.46 |
| Q18E | 2.87 |
| A15M | 2.18 |
| S21W | 2.92 |
| A12E | 3.42 |
| Y1V | 3.56 |
| T24F | 1.62 |
| T24K | 2.6 |
| E17C | 1.79 |
| A2G | 3.29 |
| Y1M | 3.63 |
| A12I | 2.07 |
| P16M | 1.91 |
| Q22C | 1.72 |
| A15P | 2.47 |
| S8E | 3.17 |
| A2V | 2.15 |
| F19I | 2.28 |
| V23L | 1.91 |
| S8A | 1.87 |
| A12Y | 1.95 |
| L4W | 3.19 |
| Q18D | 2.98 |

| Variant | protein stability index |
| --- | --- |
| E17R | 1.62 |
| T13W | 1.89 |
| S8K | 2.04 |
| T13N | 2.5 |
| E17V | 1.78 |
| S21P | 2.41 |
| S8Q | 2.08 |
| Q22R | 2.08 |
| A2F | 2.32 |
| V9L | 1.98 |
| F19E | 3.01 |
| P11V | 2.33 |
| Q22G | 2.36 |
| I20T | 2.27 |
| T24M | 1.73 |
| T13C | 1.97 |
| I20V | 2.84 |
| F19D | 2.87 |
| V9H | 2.69 |
| V9I | 2.62 |
| F19P | 2.4 |
| D14R | 1.7 |
| T13S | 2.37 |
| L4G | 3.51 |

| Variant | protein stability index |
| --- | --- |
| S8V | 2 |
| E3P | 2.27 |
| C7H | 1.91 |
| A2C | 1.92 |
| F10K | 3.26 |
| T13H | 2.2 |
| G5F | 2.5 |
| Q22D | 2.75 |
| D14E | 2.05 |
| E17T | 2.6 |
| P16R | 1.84 |
| S8C | 1.64 |
| C7I | 1.97 |
| G5A | 2.14 |
| V9F | 1.67 |
| Q6I | 1.57 |
| V23A | 2.39 |
| Q18Y | 2.26 |
| F10G | 3.27 |
| A12H | 1.93 |
| A12K | 2.13 |
| Q18M | 2 |
| A12Q | 2.6 |
| E3F | 1.94 |

| Variant | protein stability index |
| --- | --- |
| V9K | 2.88 |
| A15S | 1.83 |
| T24S | 2.1 |
| E3D | 2.19 |
| A15E | 2.6 |
| F19K | 2.97 |
| F10C | 3.07 |
| Y1T | 3.99 |
| E3Y | 1.85 |
| P11Y | 2.31 |
| L4D | 3.96 |
| A12C | 1.87 |
| V23G | 2.52 |
| D14K | 1.96 |
| Q18A | 1.87 |
| E17H | 1.86 |
| A15D | 2.27 |
| S21M | 3.09 |
| S21Y | 1.57 |
| E17F | 2.18 |
| T24P | 2.08 |
| V9Y | 2.02 |
| C7E | 3.9 |
| Q22K | 1.77 |

| Variant | protein stability index |
| --- | --- |
| P11N | 2.2 |
| V9N | 3.02 |
| S8M | 1.66 |
| F19V | 2.28 |
| P11A | 2.14 |
| Q18C | 1.84 |
| S8L | 1.62 |
| F19Q | 2.81 |
| T13L | 1.92 |
| E3L | 1.43 |
| D14P | 1.88 |
| S21V | 1.9 |
| A2L | 2.36 |
| Q6E | 3.19 |
| P16V | 1.66 |
| P11D | 1.64 |
| Y1A | 4.32 |
| V23S | 2.96 |
| E3N | 2.08 |
| F10S | 3.61 |
| A2H | 2.57 |
| V23Y | 1.98 |
| T24A | 1.59 |
| A2Q | 2.79 |

| Variant | protein stability index |
| --- | --- |
| Q22E | 3.2 |
| D14I | 2.02 |
| G5D | 3.32 |
| A2K | 3.47 |
| Q18S | 2.29 |
| Q6H | 2.02 |
| Y1P | 4.5 |
| F10L | 3.27 |
| L4A | 2.33 |
| P16D | 2.53 |
| Y1G | 4.39 |
| C7S | 1.87 |
| Q18P | 2.01 |
| Q6D | 3.3 |
| Y1I | 3.44 |
| S21D | 2.72 |
| E17A | 1.92 |
| C7W | 2.5 |
| Q22M | 1.73 |
| E17W | 3.35 |
| F19W | 1.9 |
| Q6T | 2.42 |
| F19H | 3.16 |

Source: the supplement of paper PMC10567573
